The experiment has as its target Twin-Strep-tagged LY6A, C57BL/6J variant (GPI-anchor truncated, soluble) (mouse (C57BL/6J)) (UniProt P05533). Description: ELISA, AAV particles on plate-bound Twin-Strep-tagged LY6A; apparent Kd from a 1:1 fit. (In general: An ELISA detects its analyte on a solid surface through an enzyme-linked reagent.)

In patent US20210393713A1 one finds Kd data, which are given here for one substance.

Twin-Strep-tagged LY6A, C57BL/6J variant (GPI-anchor truncated, soluble) (mouse (C57BL/6J)), sequence (P05533 27-111, change not shown): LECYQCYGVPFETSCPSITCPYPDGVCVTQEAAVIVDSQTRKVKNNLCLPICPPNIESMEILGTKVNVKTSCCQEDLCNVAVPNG

Consider “AAV-PHP.B capsid (AAV9 variant with the TLAVPFK insert)”, for which the Kd turned out to be 0.07 nM.
